According to patent US20090162360A1:

Target: recombinant human IGF-1R on I24 cells (human) (UniProt P08069)
Test: cellular FACS IGF-1R-ANGPT2 bridging assay: I24 cells + hIgG isotype, then 2 µg/mL hANGPT2, <ANGPT2>mIgG1-Biotin and Streptavidin-PE; negative control; untreated I24 cells (panel A): Mean 5.01

**Q.** How did the Mean (FL2-H fluorescence) turn out when hIgG Isotype (antibody) was run?
**A.** Its Mean (FL2-H fluorescence) is 8.76.
